Reference: PMC11169713 (Frontiers in Immunology, 2024)

Assays:
[1] = target: biotinylated H7 A/Shanghai/02/2013 hemagglutinin (Influenza A virus A/Shanghai/02/2013 …, UniProt R4NN21, strain, biotin (site not stated))
[2] = target: biotinylated H5 A/Indonesia/5/2005 hemagglutinin (Influenza A virus A/Indonesia/5/2005 …, UniProt A5A5L7, strain, biotin (site not stated))
[3] = target: biotinylated H1 A/California/04/2009 hemagglutinin (Influenza A virus A/California/04/2009 …, UniProt C3W5S1, strain, biotin (site not stated))

Measured: binding result

B1: L5A7.1 (antibody, V domains shown)
VH: QVQLQQSGPGLVKPSQTLSLTCVISGDSVSSNSAAWDWIRQSPSRGLEWLGRTYYRSKWYSDYAVSVKSRITITPDTSKNQFSLHLNSVTPEDTAVYYCARAGVRIFGVIVDSLDYWGQGTLVTVSS
VL: AIQLTQSPSSLSASVGDRVTITCRASQALNSYLAWYQQKPGKAPKLLIFAASTLQSGVPSRFSGSGSGTDFTLTISSLQPEDFATYYCQLSKTFGPGTRVDIE
binds: all assays above

B2: L5A7.2 (antibody, V domains shown)
VH: QVQLQQSGPGLVKPSQTLSLTCVISGDSVSSNSAAWDWIRQTPSRGLEWLGRTYYRSKWYSDYAVSVKSRITITPDTSKNQFSLRLNSVTPEDTAVYYCARAGVRVFGVIVDSLDYWGQGTLVTVSS
VL: AIQLTQSPSSLSASVGDRVTITCRASQGFSSYLAWYQQKPGKAPQLLIYAASTLQSGVPSRFSGSGSGTDFTLTISSLQPEDFATYYCQQSKTFGPGTRVDIE
binds: all assays above

B3: L5A7.3 (antibody, V domains shown)
VH: QVQLQQSGPGLVKPSQTLSLTCVISGDSVSSNTAAWDWIRQSPSRGLEWLGRTYYRSRWYSDYADSVKSRITITPDTSKNQFSLHLNSVTPEDTAVYYCARAGIRIFGIIVDSLDYWGQGTLVTVSS
VL: AIQLTQSPSSLSASVGDRVTITCRASQGANSYLAWYQQKPGKAPKLLIYAASTLQSGVPSRFSGSGSGTDFSLTISSLQPEDFATYYCQESKTFGPGTRVDIE
binds: all assays above

B4: L5A7.4 (antibody, V domains shown)
VH: QVQLQQSGPRLVKPSQTLSLTCAISGDSVSSTSAAWDWIRQSSSRGLEWLGRTYYRSRWYHDYEESVKSRITINADTSKNQFSLQLASVTPEDTAVYYCARAGIRVFGIIVDSLDYWGQGSLVTVSS
VL: AIQLTQSPSSLSASVGDRVTITCRASQGFNSYLAWYQQKPGKAPELLIYAASTLQSGVPSRFSGSGSGTDFTLTISSLQPEDFATYYCQQSKTFGPGTKVDIK
binds: all assays above
